In the NTF2 design screens of Basanta et al. (2020) one finds protease stability score data, which are given here for 47 sequences.

The data set is described as follows: protease stability score; higher = more stable; yeast display proteolysis, trypsin and chymotrypsin.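 Further: relative to predicted unfolded state with 0 unfolded-like and 1 meaning tenfold more protease.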
As to “SEEEEHSKFLAEILLELMRTGDWRTFEELVDPNARLEIIQGDFTIDIHGREEVSKFLKNEVEQFKNMRVELHRQSAQGNKLHIDGRLKVGDKSHELRIHINVINGKLKQVKIEID”, the protease stability score is 1.72.

Consider “DELHERLEEVLEVRIEAILTGDWHWLSRMLDPDTRLEVGDKTYHGMEKIYEKLHTETRRMGWRMEVEIKDYRFQGDYLNVDGTIHIKIGDKEIQKRSELKIVVVDGRITEFKIEYR”, for which the protease stability score was determined as 1.18.

On to “SEEEEEMRHHLEIFIESLRTGDEDEIANNADPNWINVVGDKENIGREHILTWYERFYEEIRIHDMKIRHVDVQGEKMRVEGELNKDVNGREIRTEHRWEFDIVNGRLRSLQVRVK”, for which the protease stability score is 0.919.

With “DEDDNDMEEMVRLFDRDLHTGNEDLLTELADPHARFDINGVELHGMHEFVTIWLEIRFILRDSRVEHIHIQGDKAHIKSRLHGEMIFNGRTTIVHSEVHIYFEKIDGRWMIHRHIVK”, the protease stability score stood at 0.102.

Sequence “DHLEEIADKMAKDFIHIFLTGDEHLHNRLADPNVRLHVNGRDSHGRENWSRMLTQILREMRVKDIKITSSEVQGEWSVSRTRMNVDIDGKVEEIETEIIILVVNGKLESSTIVID” registered a protease stability score of -0.103.

The sequence “HEDEEKVKNMVRHEIQALQTGDWDHWLNLADPHVKLYIDGRINHGRHVIRFLVERFDHFRIDHYEVRSINHVDGRVRVNTQLHGQETINGVHEKHTVEVEMTIIKVNGRWYIEHLELE” registered a protease stability score of 1.2.

Sequence “DEEEKDVRFFIKLLVHSLRTGDERALKHLLDPNVRMDINGREKIGWHQLRELLEEWRMHDIHITSVEVQGEKLFSHGLLEGVIGDKRVELEVEHTARKIDGRWIYTEVKFR” displayed a protease stability score of 1.32.

Turning to “DEKEKDFHHMLEDWRWATRTGDEDTLKDLMDPNAKVRYGDYEFHGREHVIQFYQQIRFHEIHVHHVRVIGNKLEADTRVRIEYNGRELSFETHLVLLKIDGKWVMKIHEID”, the protease stability score was 2.13.

For the sequence “SEEEHVAKKLSDLILHAWRTGDEDQLSRLMDPHVRMIIGDKHLHGREEVSRWLHDWRRQVDHVEFHVKRFHVQGNKYTNDGHFVVHQGDKETRTDVEIILIVVDGKIHEIRIIIR”, the protease stability score is 2.17.

“DEEEELLRKLVEELHKALRTGNEHVLRHLIDPHVRIDIDGRELHGREQFVELWKRLVDELRIHDMKIRSIKTQGDFVHSSTELDLEYGDKKFRLTTELDVRSIDGRVKHVSIRYH”: the protease stability score was determined as 1.53.

In turn, “DELKDIMREVAEIIIRLEHTGDWRVFRKMADPNVRIDIGDFHIIGREEWRHWIEELRERIKNLKVEIRITHIESQGDKVHSDTRLIIRFDGVTEERTQHLHFVIVDGRVTSVRYENR” gave a protease stability score of 0.009.

As to “SEEDEEFKHHIKLLIESLETGDWRTDRRLADPHVRLEVGDKTIHGMDEYLEFMSEIRFTRLEISSVEIQGDKLHANGETDGIVNGKRVKVESTFIIIKVDGRWIIEHERMH”, the protease stability score was -0.372.

In turn, “SEEEEMVKVALELLKHSLETGDERLMLRQIDPHAKFDVDGKEHHGRDVFREIEERVDVLHLDHVEIQHVHIQGNKLHIHLEMRSTFLFNGRTFHYRLHYEIIMFKFNGKWLITSLQLR” had a protease stability score of 0.485.

Sequence “DEEEHWLKHWTDLHLFARITGDEELLMKMLDPDVRFHIGDKESHGREEVARLLIELWIHNQHVRRRIIVNGVSHIHGELDGEINGVRHRTEIEIHILVIDGRIHEIIIKVH” gave a protease stability score of 1.24.

Regarding “DEERDHLLEISQRIIHSWVTGDWKLFARLIDPHARLIFHFENVDLHYHGREQVVTFIIEMRIQHIDIRRYTVQGNKVHIDGHQKIEIGDKSIRTDSEMNSIIVNGKLHETFLIFK”, the protease stability score was 1.45.

As to “SEHDRLAHEWMRVFLHSIWTGDEDTILKMIDPHMRLDIDGVTFHGRDDVREWFHHHRERVDHIKDVDIKDVRIFDGKAETDRIVHVQVDGKEVDEEVLVILIVIDGRVTSIIIEKR”, the protease stability score came out at 1.12.

The sequence “DEKEEHSKELVRLILRLILTGDEEILEDLMDPNVRANIDGREVHGWHEFVRILEKFLKEWRIHTTSLKRIRIIGDKAEVDLHEVGIVNGKKLEQDFHIHIEFVNGRLKEVHIEIR” came in with a protease stability score of 1.69.

Consider “SEEDHLVDLMLKFLIESLKTGDEKTLRKLVDPNDKVVFNGRELHGRRALEYWLERFDHAHRFHIEDFTVQGDYMIVRVKLDGHVDGVRMETTIHLILVKYDGRWFVKMTIFN”, for which the protease stability score is 1.26.

In turn, “NEIEELVRESLELLAHALETGDEKLMTELADPDTRLIVNGRHLWGWELHLMFLTRFDHIETRIRLTEMEVQGEKVNSRGDMDVIVNVDGQRDRKRHEFIIISTKINGRWRLKSVILR” yielded a protease stability score of 1.57.

In the case of “DELDRTVEEVSRYFMRNYITGNEERLWEMADPHVKFISEHHESHGMEEHKKFLEEAGITNVKFDIHDQKVFNGVVVVNGKIHVNGRTVDVRLISEKFDGRWHLHIIRVD”, the protease stability score came to 1.15.

On to “DEEEERLEELSKLLLEMVLTGNWDETLELADPHALIEIGDKRFHGWEHWVKLYLRIKNVRFELRIDSVRPIGDKAEIDGHVIIRIGDKEKEFDLRVEIDVVDGRLKENSIRRR”, for which the protease stability score turned out to be 1.35.

As for “DEETEILKKVVKEMRKIMHTGDEHEIHRYLDPNARLDVDGREVHGREALLEFLRKFKGMTVHIDDVEDIGDKIFIDHELRFDGVTRKSEIISNKINGRWHVESVHIR”, the protease stability score was 0.357.

The sequence “DEDTEAAREMLEIIVKSLFTGDEKSLLRLADPNWKLHQGNFSWHGRESVRRFHKEIRVHFDDIRVHRFSTINGRVHIDGHIHITVHIDGQTIHIDSDTTWHMVIINGKMHHAIIIHV” gave a protease stability score of 0.881.

In the case of “SHNDKLWHEDIELFIEAWETGDWKLLVEMLDPHTRIEIRQGDKTIVLHGREDASRDIIEYTEFFKNVTITKDDRHIQGDKTEMHITIIIGEFVLRTIIEFDMFNGQLKTYRRKVL”, the protease stability score stood at 1.18.

“SEHDEMIHKIAKEIMEVLVTGNEEWLDKLVDPHMRLEFNGKDIHGREKLNELLRKFKNVKLEYHINSIEAWDGRTQVNGKVHIEYGDKSRIKDTRLHVLIWDGKIREMRVDHD” displayed a protease stability score of 2.23.

“DEEKEFAEIYLRRLEELYNTGDEEIEHDLLDPHVRINIGNKHIHGREQYIEHWRKLLIILGIERFTIHVRIKDVRIQGEFAHLDGRLELRVGDKRRTLDVELIILKVNGRWVNKHIHFL” gave a protease stability score of 0.888.

For the sequence “DKEEKEAREWSKRFLHLFLTGNEEEFKRLMDPHTQSMLLIDGKRDTHHGRDEATKLLSDWLNHMRLRELRVHDIKVQGDKATLDIRLNVEFNGVELERTSEIIIVVFDGRIKSVIFRIE”, the protease stability score was determined as 1.55.

Sequence “SEKDERVHELLRHVEHALRTGDWEEMVKLADPHVRVIFNGKTLHGREMMNRFWEHFGADHIRIRDEDDYNGVVIVHIETVVGDKHHHVHIISEKIDGKWTMRELSIE” returned a protease stability score of 0.933.

With “DEEEHELLHFVHLWIDILRTGDWEKISEYADPNVKLIVGDKIFIGMEAFIEFMERFLRRVDHVQYEIRSIRAYDGVIEMHTEVREHQGDKEIHTEVHITFFVYNGVKKHIEIRIK”, the protease stability score worked out at 2.48.

“SEEEERLRENLERWHRALYTGDEEHLFNLADPHARFEIIVDGRDVRIHGRENYLRWVEEFRKELGISRVHTELKSEHVINGRNDEDGLVHINGRSLRVHFHLDVVDGRTKKIHIYVR” gave a protease stability score of 0.779.

In the case of “SEDQREIKDFFKILSKALTTGDEEITSAMMDPHVRMDYNGKEHHGRDFLTELMKRADHWEHRLEVRSVRIIGDKVDVEGHMILHILIGDKEIRVRVDLDIELWKVDGRWIVKEITIK”, the protease stability score was found to be 1.04.

Take “HENEENETEAIRLFLRVMLTGDEHDLKRMFDPDMKVEIGDKRIVGRERVLEHWLHTAERFGLTNIYLQLDHVRVINGRVDIDFHVRFNGRTERVHLHILKINGKWIVEHLEVR”: the protease stability score stood at 1.36.

On to “TEEERLHHELAKLMIHLMHTGDFDKLIKLVDPHAKLDEDVDGREVHVHGMEKWFEYLKEKFERIKNITIHIRDWRVYNGRVEIHVEYDINGKHVDTTIRLDVVNGRVKRIQIEQK”, for which the protease stability score amounted to 2.16.

Turning to “DEEDEETREIAEMLHRWFITGDWKALMKYVDPNMRNIIHVNGRNIHTHGWKDMVKDLKDLGLENIHVDLKSISFQGDKAHIDGQLRVGDKEEKVEIHSEVVNGRIKRLEIRVH”, the protease stability score came out at 1.9.

For “SEDEELLKKFFERLLHALRTGDEDHLRTLIDPHARLIQGDKHYIGREQLEHSLHIILSHIRFEHHDSRREEIQGDKAIVHSHLIVRQGDKTYRLDVTFHLEKVNGRWVIREVDLN”, the protease stability score is 1.33.

The sequence “DDMHRELRKLAEEIEKLIETGDEDRLRTLLDPHTRVEIGDWSDMGWDAIHKMIRHIRIDSVTIRREHFFNGRVHTDIEVDGTIGDKKDIRHVELEIVIVDGRVKEIKMIYV” returned a protease stability score of 2.13.

The sequence “NDEEQVAHKFFEKLMHALLTGDEERLKELHDPDVRVDYGNFKLVGREKMVEFWHRFLEEIRLRNTHIETYHIFDGRLEIHSRIHIEVDGKIRIMEVYLEVRKIDGKWRLTHVEFR” registered a protease stability score of 1.68.

In turn, “SEEEEEVVRIWKLLLELEKTGNEENIARLADPHVRTDINGQESHGREHLAKLVRHLFHEIRIKDFKIRRLELQGEKLIVDGELHGNYDGQHEVVDTEIHIYVVNGKLKSITVRHH” yielded a protease stability score of 1.47.

In turn, “DETTEHVRKLTELLLRSWVTGDEETDEKMADPNVRIIFEGREVHGMHWFSRVVKELRIEHVQIHDERFKVFEGRAEMRVDTHLRGTQGNYHDERKVRVEIHIIKVNGRWHLETIRVSVH” yielded a protease stability score of 1.21.

“SEHEKHNRDVVRIVLHALLTGDEELFEENADPNVRTEIDVNGKEIQIHGRSKWVEWLRREIERFDHVRIDLKRIDVQGDKLHTDGHLRLKQGDKEITTDVRLHIVVVDGRIDSMEMSVH” yielded a protease stability score of 2.1.

With “HEDEHKWERAFRIWIHALITGDEETTNELMDPNTRLNFNGVDFIGREDMIELIRHIRIHREHITHVEIRTFNGVLHVHMHVRRDGNINGQRRNTDVEIHIVIFKVNGRWVLHSTTIVVN”, the protease stability score is 2.23.

With “SDDEEDVWRMAEIILKLFYTGDEEKFRNLADPNVRLNFNGRNFIGRENLEKHLRELRIHRIELREMDLKVINGRAEVRVRGFVDGEIDGQRYHSEVRLIMIITKVDGRWIIESIEFEQL”, the protease stability score was 2.59.

In the case of “DEIKESAEEAQRTWVHNSLTGNEEELSRNADPDVRVIIYVNGREIRLIGREFLEELMHRVKNLTIEVDEIRFQGDKIRFNERWTVNGVPRHVDLVMHKFNGKWHIHSINIHVV”, the protease stability score is 1.15.

For the sequence “DEDEEDARIAWEILVRVWKTGDEEELMKMADPNTRLEINGREFHGREHYLHMSRELRVERVDVRRLEVFDGKVHLEGESHMEVNGKRRTHKVVHIMRKIDGRWHIEYFIVH”, the protease stability score came out at 1.31.

Sequence “DEEQEILKEMAKEILHMLQTGDWKRFLELADPNVKNIVNGREVHGREIVVEYIRKMGIDHHILHDVHIQGDKIHIHGTLEVNGKRIEVEIEIVVVNGRVKMIIFILK” yielded a protease stability score of 2.05.

Consider “TEEEHNVRIALSLYIETFKTGNEEVLRRRLDPNARLIFNGRDLHGRELIEDWIHEFHEKVPGLQIHRHEVKDWHVQGNKIDLDVHIDGVFDGKQTETRVILHILKVDGQWIMTVIEIR”, for which the protease stability score was 1.35.

As for “SEEEKESEDSMRILEHYFHTGNEESLLKLADPHVRSEINGKIHHGMDLHNEIWKHFVQQFKGARPTSLNFKDVEIQGNKAEFHIELVLTIGNYSIHLEMHIFNEKVDGRWLIRSTYIR”, the protease stability score came to 1.08.
